Here are results for one molecule from PMC4188797.

For orientation: stoichiometry N means the number of molecules, sites or subunits per partner or assembly.

This assay concerns the target metabotropic glutamate receptor 1 splice variant mGluR1a (endogenous, rat brain) (rat (endogenous in rat brain)), P23385. Briefly: SDS-PAGE and immunoblot of dimer bands in subcellular fractions. The following applies: remark: other sources report otherwise. For orientation: In western blotting, separated proteins are transferred to a membrane and probed.

B1: metabotropic glutamate receptor 1 splice variant mGluR1a (endogenous, rat brain), P23385 19-1199 (receptor)
chain: LPRMPDRKVLLAGASSQRSVARMDGDVIIGALFSVHHQPPAEKVPERKCGEIREQYGIQRVEAMFHTLDKINADPVLLPNITLGSEIRDSCWHSSVALEQSIEFIRDSLISIRDEKDGLNRCLPDGQTLPPGRTKKPIAGVIGPGSSSVAIQVQNLLQLFDIPQIAYSATSIDLSDKTLYKYFLRVVPSDTLQARAMLDIVKRYNWTYVSAVHTEGNYGESGMDAFKELAAQEGLCIAHSDKIYSNAGEKSFDRLLRKLRERLPKARVVVCFCEGMTVRGLLSAMRRLGVVGEFSLIGSDGWADRDEVIEGYEVEANGGITIKLQSPEVRSFDDYFLKLRLDTNTRNPWFPEFWQHRFQCRLPGHLLENPNFKKVCTGNESLEENYVQDSKMGFVINAIYAMAHGLQNMHHALCPGHVGLCDAMKPIDGRKLLDFLIKSSFVGVSGEEVWFDEKGDAPGRYDIMNLQYTEANRYDYVHVGTWHEGVLNIDDYKIQMNKSGMVRSVCSEPCLKGQIKVIRKGEVSCCWICTACKENEFVQDEFTCRACDLGWWPNAELTGCEPIPVRYLEWSDIESIIAIAFSCLGILVTLFVTLIFVLYRDTPVVKSSSRELCYIILAGIFLGYVCPFTLIAKPTTTSCYLQRLLVGLSSAMCYSALVTKTNRIARILAGSKKKICTRKPRFMSAWAQVIIASILISVQLTLVVTLIIMEPPMPILSYPSIKEVYLICNTSNLGVVAPVGYNGLLIMSCTYYAFKTRNVPANFNEAKYIAFTMYTTCIIWLAFVPIYFGSNYKIITTCFAVSLSVTVALGCMFTPKMYIIIAKPERNVRSAFTTSDVVRMHVGDGKLPCRSNTFLNIFRRKKPGAGNANSNGKSVSWSEPGGRQAPKGQHVWQRLSVHVKTNETACNQTAVIKPLTKSYQGSGKSLTFSDASTKTLYNVEEEDNTPSAHFSPPSSPSMVVHRRGPPVATTPPLPPHLTAEETPLFLADSVIPKGLPPPLPQQQPQQPPPQQPPQQPKSLMDQLQGVVTNFGSGIPDFHAVLAGPGTPGNSLRSLYPPPPPPQHLQMLPLHLSTFQEESISPPGEDIDDDSERFKLLQEFVYEREGNTEEDELEEEEDLPTASKLTPEDSPALTPPSPFRDSVASGSSVPSSPVSESVLCTPPNVTYASVILRDYKQSSSTL
B1 registered a stoichiometry N of 2.
